We go through 1 molecule from patent publication US20240400675A1 (published 2024).

One experiment has as its target T1, human CLDN5 (human, UniProt O00501 1-218).
T1 construct: whole, on cells
T1 sequence (looked up): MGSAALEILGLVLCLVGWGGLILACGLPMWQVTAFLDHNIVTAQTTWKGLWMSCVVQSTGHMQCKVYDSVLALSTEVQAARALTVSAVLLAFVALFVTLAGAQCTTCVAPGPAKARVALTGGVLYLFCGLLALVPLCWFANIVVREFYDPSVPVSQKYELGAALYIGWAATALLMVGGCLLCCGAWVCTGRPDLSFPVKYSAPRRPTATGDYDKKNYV
The experiment is described as follows: flow cytometry on transfected cells. A general note: A flow cytometer gives signals particle by particle.

A further experiment has as its target T2, human CLDN8 (human, UniProt P56748 1-225).
T2 construct: whole, on cells
T2 sequence (looked up): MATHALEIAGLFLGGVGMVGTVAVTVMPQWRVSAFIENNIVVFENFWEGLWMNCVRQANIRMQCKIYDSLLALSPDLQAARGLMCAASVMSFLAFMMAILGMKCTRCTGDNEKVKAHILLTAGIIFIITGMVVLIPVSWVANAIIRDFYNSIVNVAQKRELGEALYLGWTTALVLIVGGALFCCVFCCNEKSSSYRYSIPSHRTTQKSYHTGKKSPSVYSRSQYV
In words: flow cytometry on transfected cells.

Another experiment deals with T3, human CLDN17 (human, UniProt P56750 1-224).
T3 construct: whole, on cells
T3 sequence (looked up): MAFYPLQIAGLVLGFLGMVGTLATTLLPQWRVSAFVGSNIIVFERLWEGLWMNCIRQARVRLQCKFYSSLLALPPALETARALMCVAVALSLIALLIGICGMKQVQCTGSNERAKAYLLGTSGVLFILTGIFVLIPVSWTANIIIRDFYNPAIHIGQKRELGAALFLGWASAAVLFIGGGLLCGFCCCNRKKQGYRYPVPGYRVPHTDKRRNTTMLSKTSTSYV
In words: flow cytometry on transfected cells.

A further experiment deals with T4, human CLDN6 (human, UniProt P56747 1-220).
T4 construct: also called Claudin 6
T4 sequence: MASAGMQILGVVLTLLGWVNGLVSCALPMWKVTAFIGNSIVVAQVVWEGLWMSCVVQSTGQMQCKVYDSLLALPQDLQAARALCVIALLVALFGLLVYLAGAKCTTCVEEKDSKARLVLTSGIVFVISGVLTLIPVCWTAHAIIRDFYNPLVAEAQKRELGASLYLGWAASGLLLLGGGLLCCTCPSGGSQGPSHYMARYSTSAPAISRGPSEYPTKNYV
The experiment is described as follows: flow cytometry on transfected HEK293E cells. Here is the method:
(§1) The following experiments used to screen CLDN6 binding domains were generally performed as follows. HEK293T or HEK293E cells were respectively stably or transiently transfected to express CLDN6, CLND9, or other targets of interest. 48 hours post transfection, cells were harvested and incubated with dilutions of the indicated test articles for 1 hour at 4° C. […] Binding was then assessed via flow cytometry.

A further experiment concerns the target T5, CLDN6 I143V isotype (human, UniProt P56747 1-220).
T5 chain: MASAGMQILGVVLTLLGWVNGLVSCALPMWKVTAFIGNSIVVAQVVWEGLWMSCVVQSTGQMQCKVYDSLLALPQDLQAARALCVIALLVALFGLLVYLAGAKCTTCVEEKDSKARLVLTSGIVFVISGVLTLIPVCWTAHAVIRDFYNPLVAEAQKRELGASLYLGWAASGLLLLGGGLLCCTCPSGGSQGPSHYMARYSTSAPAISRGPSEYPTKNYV
In words: flow cytometry on transfected HEK293E cells. Here is the method:
as §1

A further experiment addresses T6, mouse CLDN6 (mouse, UniProt Q9Z262 1-219).
T6 construct: whole, on cells; also called murine CLDN6
T6 sequence (looked up): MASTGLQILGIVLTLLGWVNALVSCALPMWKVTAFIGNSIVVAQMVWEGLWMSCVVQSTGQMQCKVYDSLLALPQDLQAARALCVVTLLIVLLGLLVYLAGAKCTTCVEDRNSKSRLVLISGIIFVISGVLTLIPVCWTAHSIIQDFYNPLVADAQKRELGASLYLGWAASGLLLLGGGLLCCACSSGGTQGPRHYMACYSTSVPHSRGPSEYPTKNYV
In words: flow cytometry on transfected HEK293E cells. How it is done:
as §1

B1: XENP34233 (C6-30_H1L1 x CD3 bsAb in the 2+1 Fab2-scFv-Fc format) (bispecific antibody)
heavy 1: QVQLVQSGAEVKKPGASVKVSCKTSGYTFTEYTMHWVRQAPGQSLEWMGGIDPNNGNTHYNQKFQGRVTITVDKSASTAYMELSSLRSEDTAVYYCARIYYFGRLYFDFWGAGTLVTVSSASTKGPSVFPLAPSSKSTSGGTAALGCLVKDYFPEPVTVSWNSGALTSGVHTFPAVLQSSGLYSLSSVVTVPSSSLGTQTYICNVNHKPSDTKVDKKVEPKSCDKTHTCPPCPAPPVAGPSVFLFPPKPKDTLMISRTPEVTCVVVDVKHEDPEVKFNWYVDGVEVHNAKTKPREEEYNSTYRVVSVLTVLHQDWLNGKEYKCKVSNKALPAPIEKTISKAKGQPREPQVYTLPPSREEMTKNQVSLTCDVSGFYPSDIAVEWESDGQPENNYKTTPPVLDSDGSFFLYSKLTVDKSRWEQGDVFSCSVMHEALHNHYTQKSLSLSPGK
heavy 2: QVQLVQSGAEVKKPGASVKVSCKTSGYTFTEYTMHWVRQAPGQSLEWMGGIDPNNGNTHYNQKFQGRVTITVDKSASTAYMELSSLRSEDTAVYYCARIYYFGRLYFDFWGAGTLVTVSSASTKGPSVFPLAPSSKSTSGGTAALGCLVKDYFPEPVTVSWNSGALTSGVHTFPAVLQSSGLYSLSSVVTVPSSSLGTQTYICNVNHKPSNTKVDKKVEPKSCGGGGSGGGGSQAVVTQEPSLTVSPGGTVTLTCGSSTGAVTTSNYANWVQQKPGKSPRGLIGGTNKRAPGVPARFSGSLLGGKAALTISGAQPEDEADYYCALWYSNHWVFGGGTKLTVLGKPGSGKPGSGKPGSGKPGSEVQLVESGGGLVQPGGSLRLSCAASGFTFSTYAMNWVRQAPGKGLEWVGRIRSKYNNYATYYADSVKGRFTISRDDSKNTLYLQMNSLRAEDTAVYYCVRHGNFGDSYVSWFAYWGQGTLVTVSSGGGGSGGGGSKTHTCPPCPAPPVAGPSVFLFPPKPKDTLMISRTPEVTCVVVDVKHEDPEVKFNWYVDGVEVHNAKTKPREEQYNSTYRVVSVLTVLHQDWLNGKEYKCKVSNKALPAPIEKTISKAKGQPREPQVYTLPPSREQMTKNQVKLTCLVKGFYPSDIAVEWESNGQPENNYKTTPPVLDSDGSFFLYSKLTVDKSRWQQGNVFSCSVMHEALHNHYTQKSLSLSPGK
light: not shown
notes: copies: 1 + 1 + 2
With B1, the binding result in the experiment with human CLDN5 is “no binding”; with human CLDN8, “no binding”; with human CLDN17, “no binding”; with human CLDN6 it was “binds”; in the experiment with CLDN6 I143V isotype it was “binds”; in the experiment with mouse CLDN6 it was “binds”.
